# Earlier results as cited in PMC12071944, “Interaction Between Glucagon-like Peptide 1 and Its Analogs with Amyloid-β Peptide Affects Its Fibrillation and Cytotoxicity” (International Journal of Molecular Sciences, 2025).
# System: AD patients
# Conditions: human, in vivo
# Text: Worldwide, approximately 416 million individuals are affected by AD dementia, prodromal AD, or preclinical AD, accounting for 22% of the population aged 50 years and older.
molecule,measurement,value
"lecanemab (antibody, chains of the INN, looked up, V domains shown) VH: EVQLVESGGGLVQPGGSLRLSCSASGFTFSSFGMHWVRQAPGKGLEWVAYISSGSSTIYYGDTVKGRFTISRDNAKNSLFLQMSSLRAEDTAVYYCAREGGYYYGRSYYTMDYWGQGTTVTVSS VL: DVVMTQSPLSLPVTPGAPASISCRSSQSIVHSNGNTYLEWYLQKPGQSPKLLIYKVSNRFSGVPDRFSGSGSGTDFTLRISRVEAEDVGIYYCFQGSHVPPTFGPGTKLEIK",side effects,brain edema and microhemorrhages
